We go through 7 molecules from article PMC5969521, “Actin-related proteins regulate the RSC chromatin remodeler by weakening intramolecular interactions of the Sth1 ATPase” (Communications Biology, 2018).

The target in data set [1] is T1, Sth1(301-1097) (budding yeast, UniProt P32597 301-1097). The data set is described as follows: EMSA. To be noted: apparent Kd, Anisotropy: 20 mM HEPES pH 7.5, 50 mM NaCl, 2.5 mM MgCl2, 5% glycerol, 1 mM DTT, 0.1 mg/mL BSA, 1 mM AMPPNP or ADP, 50 nM DNA, 20 C, EMSA: 20 mM HEPES pH 7.5 …. A general note: Mobility shift assays separate free from complexed probe on a gel.
T1 sequence (P32597 301-1097): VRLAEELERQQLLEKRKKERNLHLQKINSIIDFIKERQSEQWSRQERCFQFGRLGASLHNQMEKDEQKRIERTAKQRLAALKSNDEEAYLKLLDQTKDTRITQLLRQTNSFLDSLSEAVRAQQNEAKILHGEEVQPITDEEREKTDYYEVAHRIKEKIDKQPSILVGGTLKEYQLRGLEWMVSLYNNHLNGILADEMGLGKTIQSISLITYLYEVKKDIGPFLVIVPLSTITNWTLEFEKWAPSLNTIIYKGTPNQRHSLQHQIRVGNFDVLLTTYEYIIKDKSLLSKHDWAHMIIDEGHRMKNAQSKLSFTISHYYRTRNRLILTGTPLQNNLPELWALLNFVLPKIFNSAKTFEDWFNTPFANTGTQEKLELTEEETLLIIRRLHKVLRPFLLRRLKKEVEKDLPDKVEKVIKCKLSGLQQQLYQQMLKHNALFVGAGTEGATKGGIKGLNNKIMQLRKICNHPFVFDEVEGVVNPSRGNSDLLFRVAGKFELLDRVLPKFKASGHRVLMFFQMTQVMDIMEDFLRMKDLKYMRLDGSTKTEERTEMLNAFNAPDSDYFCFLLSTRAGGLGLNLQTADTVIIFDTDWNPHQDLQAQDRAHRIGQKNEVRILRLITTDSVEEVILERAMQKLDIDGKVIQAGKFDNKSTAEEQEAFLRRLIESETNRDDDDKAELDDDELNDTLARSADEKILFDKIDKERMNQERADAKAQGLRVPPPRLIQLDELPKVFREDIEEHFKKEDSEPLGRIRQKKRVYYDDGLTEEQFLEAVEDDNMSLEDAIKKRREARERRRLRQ

The target in data set [2] is T2, Rtt102;Arp7;Arp9;Sth1(301-1097) (budding yeast;budding yeast;budding …, UniProt P53330;Q12406;Q05123;P32597 1-157;1-477;1-467;301-1097, |||). Nature of the data set: EMSA. To be noted: apparent Kd, Anisotropy: 20 mM HEPES pH 7.5, 50 mM NaCl, 2.5 mM MgCl2, 5% glycerol, 1 mM DTT, 0.1 mg/mL BSA, 1 mM AMPPNP or ADP, 50 nM DNA, 20 C, EMSA: 20 mM HEPES pH 7.5 ….
Target sequence in this assay (P32597 301-1097, one chain of several): as the sequence (P32597 301-1097) above
Data set [3] has as its target T3, Rtt102-Arp7/9-Sth1_301–1097 (Saccharomyces cerevisiae, UniProt P32597).
T3 construct: gene STH1; quaternary complex; Sth1 residues 301-1097 (HSA, pHSA, ATPase domains), Ni-NTA purified; with Actin-related protein 7; Actin-like protein ARP9; Regulator of Ty1 transposition protein 102
Nature of the data set: phosphate release (MESG/purine nucleoside phosphorylase, […] nm). It counts as biochemical. To be noted: 1 mM ATP, plasmid DNA, 2.5 mM MgCl2, pH 7.0, 22 °C; hydrolysis by the Sth1 subunit.

Another data set concerns the target T4, Rtt102-Arp7/9 (Saccharomyces cerevisiae, UniProt Q12406).
T4 construct: heterotrimer reconstituted from Rtt102 and Arp7/9 (2:1 mix, gel filtration); Rtt102 157 aa; with Actin-like protein ARP9; Regulator of Ty1 transposition protein 102
T4 sequence (Q12406 1-477): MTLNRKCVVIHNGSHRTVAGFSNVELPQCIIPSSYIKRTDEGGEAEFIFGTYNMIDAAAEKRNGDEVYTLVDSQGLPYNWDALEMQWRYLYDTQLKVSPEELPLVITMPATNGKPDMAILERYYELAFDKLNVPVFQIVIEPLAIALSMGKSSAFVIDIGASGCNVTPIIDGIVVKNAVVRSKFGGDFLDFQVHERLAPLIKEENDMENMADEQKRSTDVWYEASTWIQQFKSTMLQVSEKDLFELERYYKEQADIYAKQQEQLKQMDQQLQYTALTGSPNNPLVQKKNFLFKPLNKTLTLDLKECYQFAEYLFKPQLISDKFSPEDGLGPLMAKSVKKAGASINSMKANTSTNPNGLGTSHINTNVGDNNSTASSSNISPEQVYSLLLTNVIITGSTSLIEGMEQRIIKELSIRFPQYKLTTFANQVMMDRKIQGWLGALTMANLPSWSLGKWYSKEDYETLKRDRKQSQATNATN
T4 sequence (Q05123 1-467 partner): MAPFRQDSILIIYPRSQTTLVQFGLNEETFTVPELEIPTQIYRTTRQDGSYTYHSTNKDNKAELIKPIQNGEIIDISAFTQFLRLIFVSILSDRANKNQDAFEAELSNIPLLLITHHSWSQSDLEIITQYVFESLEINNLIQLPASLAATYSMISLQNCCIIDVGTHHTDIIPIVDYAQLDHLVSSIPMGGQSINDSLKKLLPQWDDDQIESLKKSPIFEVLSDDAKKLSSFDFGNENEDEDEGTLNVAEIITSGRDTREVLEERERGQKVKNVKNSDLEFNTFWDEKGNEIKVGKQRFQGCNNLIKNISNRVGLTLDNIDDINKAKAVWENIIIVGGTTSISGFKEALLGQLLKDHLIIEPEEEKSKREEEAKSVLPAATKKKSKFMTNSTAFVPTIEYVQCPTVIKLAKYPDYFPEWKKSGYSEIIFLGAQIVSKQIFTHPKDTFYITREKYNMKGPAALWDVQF
T4 sequence (P53330 1-157 partner): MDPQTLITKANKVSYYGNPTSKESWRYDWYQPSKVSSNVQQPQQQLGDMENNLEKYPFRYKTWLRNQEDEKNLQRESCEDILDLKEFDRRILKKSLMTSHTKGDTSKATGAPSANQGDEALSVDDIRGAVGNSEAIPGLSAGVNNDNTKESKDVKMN
The data set is described as follows: X-ray crystallography ([…] Å). The settings on record: pre-incubated with 1 mM ATP; ATP bound in nucleotide cleft of Arp7, not Arp9; no cation seen; not hydrolysed. It counts as binding.

Data set [4] has as its target Rtt102-Arp7/9-bound His-HSA–pHSA fragment (budding yeast) (UniProt P32597). The data set is described as follows: pull-down; TEV cleavage and co-purification assay: purified Sth1 constructs at 6 μM (±Arp7/9 and Rtt102) cut with TEV protease overnight, His-tagged N-terminal fragment held on Ni-NTA resin; 20 mM HEPES pH 7.5, 500 mM NaCl, 5% glycerol, 25 mM imidazole, 1 mM MgCl2, 0.1 mM AMPPNP; eluted with 250 mM imidazole; SDS-PAGE, Coomassie.

In data set [5] the target is nucleosome (Xenopus laevis histone octamer on 601 nucleosomal DNA) (Xenopus laevis). The data set is described as follows: native gel or EMSA; native gel shift, 1 mM AMPPNP; nucleosomes held constant, Sth1 constructs up to 10 μM; 20 mM HEPES pH 7.5, 50 mM NaCl, 5% glycerol, 1 mM DTT, 0.1 mg/mL BSA, 1 mM MgCl2; 30 min room temperature, gel at 4 °C; apparent KD from a single-site hyperbolic fit.

For data set [6] the target is unchanged. Nature of the data set: native gel or EMSA; native gel shift, 1 mM ADP; nucleosomes held constant, Sth1 constructs up to 10 μM; 20 mM HEPES pH 7.5, 50 mM NaCl, 5% glycerol, 1 mM DTT, 0.1 mg/mL BSA, 1 mM MgCl2; 30 min room temperature, gel at 4 °C; apparent KD from a single-site hyperbolic fit.
Data set [7] has as its target Sth1(365-1097) P1swap (budding yeast; Rad54 segment from S. solfataricus) (UniProt P32597). The data set is described as follows: fluorescence anisotropy. The settings on record: nucleotide state not visible in material; Anisotropy: 20 mM HEPES pH 7.5, 50 mM NaCl, 2.5 mM MgCl2, 5% glycerol, 1 mM DTT, 0.1 mg/mL BSA, 1 mM AMPPNP or ADP, 50 nM DNA, 20 C; EMSA: 20 mM HEPES pH 7.5 …. In general terms: In fluorescence polarisation assays a small probe gives low polarisation when free and higher when bound to something large.

For the next data set, the target named is Sth1(365-1097) (budding yeast, UniProt P32597 365-1097). The data set is described as follows: fluorescence anisotropy; nucleotide state not visible in material; Anisotropy: 20 mM HEPES pH 7.5, 50 mM NaCl, 2.5 mM MgCl2, 5% glycerol, 1 mM DTT, 0.1 mg/mL BSA, 1 mM AMPPNP or ADP, 50 nM DNA, 20 C; EMSA: 20 mM HEPES pH 7.5, 50 mM NaCl, 1 mM MgCl2, 5% glycerol, 1 mM DTT, 0.1 mg/mL BSA, 1 mM ADP or AMPPNP, room temperature. The settings on record: protein: recombinant; label: 5'-fluorescein; strands 21 and 22 nt: 21 bp with 1 nt 5' overhang (T) on strand 2.
Sth1(365-1097), sequence (P32597 365-1097): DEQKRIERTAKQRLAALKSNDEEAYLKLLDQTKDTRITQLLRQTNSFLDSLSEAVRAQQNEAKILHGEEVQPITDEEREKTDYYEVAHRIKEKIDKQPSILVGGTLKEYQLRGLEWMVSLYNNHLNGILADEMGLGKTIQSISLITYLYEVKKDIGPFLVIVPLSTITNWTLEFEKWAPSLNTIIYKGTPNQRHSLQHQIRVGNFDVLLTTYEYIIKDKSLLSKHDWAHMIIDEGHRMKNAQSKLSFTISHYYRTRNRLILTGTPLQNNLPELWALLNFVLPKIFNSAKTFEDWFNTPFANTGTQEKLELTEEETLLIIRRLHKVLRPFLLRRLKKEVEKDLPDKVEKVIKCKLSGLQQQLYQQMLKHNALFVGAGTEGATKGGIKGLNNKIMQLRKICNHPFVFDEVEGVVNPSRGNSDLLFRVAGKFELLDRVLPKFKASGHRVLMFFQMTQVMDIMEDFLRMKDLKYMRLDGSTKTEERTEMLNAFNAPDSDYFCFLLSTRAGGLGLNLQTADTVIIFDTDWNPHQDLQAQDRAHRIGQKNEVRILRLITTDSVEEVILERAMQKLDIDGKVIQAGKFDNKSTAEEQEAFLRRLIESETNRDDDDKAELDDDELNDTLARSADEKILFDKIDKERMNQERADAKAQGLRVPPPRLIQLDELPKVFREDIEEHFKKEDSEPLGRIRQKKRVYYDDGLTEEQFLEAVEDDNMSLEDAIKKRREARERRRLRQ

The target in another data set is Arp7;Arp9;Sth1(301-1097) (budding yeast;budding yeast;budding …, UniProt Q12406;Q05123;P32597 1-477;1-467;301-1097, ||). Nature of the data set: fluorescence anisotropy; 1 mM AMPPNP; Anisotropy: 20 mM HEPES pH 7.5, 50 mM NaCl, 2.5 mM MgCl2, 5% glycerol, 1 mM DTT, 0.1 mg/mL BSA, 1 mM AMPPNP or ADP, 50 nM DNA, 20 C; EMSA: 20 mM HEPES pH 7.5, 50 mM NaCl, 1 mM MgCl2, 5% glycerol, 1 mM DTT, 0.1 mg/mL BSA, 1 mM ADP or AMPPNP, room temperature. To be noted: protein: recombinant;recombinant;recombinant; copies: 1;1;1; label: 5'-fluorescein; strands 21 and 22 nt: 21 bp with 1 nt 5' overhang (T) on strand 2.
Arp7;Arp9;Sth1(301-1097), sequence (P32597 301-1097, chain 3 of 3, one chain of several): as the sequence (P32597 301-1097) above

The target in data set [8] is T1, Sth1(301-1097). The description is as above. To be noted: protein: recombinant; label: 5'-fluorescein; strands 21 and 22 nt: 21 bp with 1 nt 5' overhang (T) on strand 2.
For data set [9], the target named is T2, Rtt102;Arp7;Arp9;Sth1(301-1097). Described as above. To be noted: protein: recombinant;recombinant;recombinant;recombinant; copies: 1;1;1;1; label: 5'-fluorescein; strands 21 and 22 nt: 21 bp with 1 nt 5' overhang (T) on strand 2.
Target sequence in this assay (P32597 301-1097, chain 4 of 4, one chain of several): as the sequence (P32597 301-1097) above

T3 sequence (P32597 301-1097, one chain of several): as the sequence (P32597 301-1097) above
Sth1(365-1097) P1swap (budding yeast; Rad54 segment from S. solfataricus), sequence (P32597 whole entry): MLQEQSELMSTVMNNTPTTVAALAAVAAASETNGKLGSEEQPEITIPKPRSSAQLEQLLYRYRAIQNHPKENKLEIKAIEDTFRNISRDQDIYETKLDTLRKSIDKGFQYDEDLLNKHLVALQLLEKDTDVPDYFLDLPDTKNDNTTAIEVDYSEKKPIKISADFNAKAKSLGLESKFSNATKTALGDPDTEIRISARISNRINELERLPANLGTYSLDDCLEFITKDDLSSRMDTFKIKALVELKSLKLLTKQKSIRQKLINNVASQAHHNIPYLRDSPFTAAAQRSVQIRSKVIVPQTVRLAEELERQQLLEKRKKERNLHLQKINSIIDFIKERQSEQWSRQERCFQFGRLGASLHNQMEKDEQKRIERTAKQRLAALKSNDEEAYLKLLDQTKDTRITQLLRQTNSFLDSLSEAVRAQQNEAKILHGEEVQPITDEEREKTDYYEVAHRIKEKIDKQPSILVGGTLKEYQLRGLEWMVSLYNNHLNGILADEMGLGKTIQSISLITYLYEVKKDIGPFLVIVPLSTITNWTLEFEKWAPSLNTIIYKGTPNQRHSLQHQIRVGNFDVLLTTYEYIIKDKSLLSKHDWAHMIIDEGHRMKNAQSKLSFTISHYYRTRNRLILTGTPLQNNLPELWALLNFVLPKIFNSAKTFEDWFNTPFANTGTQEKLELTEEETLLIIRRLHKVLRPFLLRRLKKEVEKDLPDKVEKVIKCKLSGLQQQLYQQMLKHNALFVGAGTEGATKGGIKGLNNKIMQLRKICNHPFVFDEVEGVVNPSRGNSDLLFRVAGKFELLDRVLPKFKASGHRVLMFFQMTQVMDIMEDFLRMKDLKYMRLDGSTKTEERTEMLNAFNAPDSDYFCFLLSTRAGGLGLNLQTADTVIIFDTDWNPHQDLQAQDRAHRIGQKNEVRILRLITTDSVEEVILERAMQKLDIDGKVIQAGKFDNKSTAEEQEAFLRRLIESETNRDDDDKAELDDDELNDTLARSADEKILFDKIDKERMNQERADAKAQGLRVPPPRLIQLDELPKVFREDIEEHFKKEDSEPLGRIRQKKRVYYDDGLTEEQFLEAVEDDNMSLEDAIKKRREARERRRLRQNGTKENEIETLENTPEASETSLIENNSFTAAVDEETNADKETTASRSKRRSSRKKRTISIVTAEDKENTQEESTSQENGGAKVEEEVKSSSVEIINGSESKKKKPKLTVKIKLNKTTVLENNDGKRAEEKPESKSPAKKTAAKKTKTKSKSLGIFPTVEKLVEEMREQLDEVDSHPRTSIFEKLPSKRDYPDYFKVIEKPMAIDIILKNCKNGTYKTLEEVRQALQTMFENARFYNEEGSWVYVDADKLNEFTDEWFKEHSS

In the case of “601 nucleosome (Xenopus laevis core histone octamer)”, the Kd in the data set with Sth1(301-1097) [1] (1 mM ADP) is 670 nM; with Sth1(301-1097) [1] (1 mM AMPPNP), 670 nM; in [2] (1 mM ADP), 510 nM; in [2] (1 mM AMPPNP), 460 nM.
Regarding `Nc1ncnc2c1ncn2[C@@H]1O[C@H](COP(=O)(O)OP(=O)(O)OP(=O)(O)O)[C@@H](O)[C@H]1O` [ATP], in [3], the “phosphate release (MESG/purine nucleoside phosphorylase, 360 nm)” value is “displays strong DNA-dependent ATPase activity catalyzed by subunit Sth1”. The “X-ray crystallography (3.25 Å)” value on Rtt102-Arp7/9 is recorded as “showed the presence of ATP in the nucleotide-binding cleft of Arp7 but not Arp9”.
As for “untagged ATPase fragment of TEV-cleaved Sth1_(301–1097) or Sth1_(365–1097) (from UniProt P32597 432-1097) (domain or fragment)”, the percent of the ATPase lost after passage through the Ni-NTA column in data set [4] is 45%.
For the molecule “Sth1_(301–1097) (from UniProt P32597 301-1097) (domain or fragment)”, the Kd in [5] and in data set [6] was 670 nM throughout.
“TCCATGTCCATGGATACGTGG / TCCACGTATCCATGGACATGGA [fluorescein DNA duplex]” returned a Kd in [7] of 520 nM.
On to “Rtt102-Arp7/9-Sth1_(301–1097) quaternary complex (from UniProt P32597 301-1097; Q12406 1-477; Q05123 1-467; P53330 1-157)”, for which the Kd in [5] amounted to 460 nM; in [6], 510 nM.

B1: fluorescein DNA duplex (dsDNA)
DNA 1: TCCATGTCCATGGATACGTGG
DNA 2: TCCACGTATCCATGGACATGGA
As to B1, the Kd with Sth1(365-1097) was 700 ± 10 nM; with Arp7;Arp9;Sth1(301-1097), 3000 nM; in the data set with Sth1(301-1097) [8], 280 nM; in data set [9], 4200 nM.
